Assay results published in IntAct's records for PubMed 38225382.

B1: Peroxisomal biogenesis factor 3 (Homo sapiens), P56589 (parent)
chain: MLRSVWNFLKRHKKKCIFLGTVLGGVYILGKYGQKKIREIQEREAAEYIAQARRQYHFESNQRTCNMTVLSMLPTLREALMQQLNSESLTALLKNRPSNKLEIWEDLKIISFTRSTVAVYSTCMLVVLLRVQLNIIGGYIYLDNAAVGKNGTTILAPPDVQQQYLSSIQHLLGDGLTELITVIKQAVQKVLGSVSLKHSLSLLDLEQKLKEIRNLVEQHKSSSWINKDGSKPLLCHYMMPDEETPLAVQACGLSPRDITTIKLLNETRDMLESPDFSTVLNTCLNRGFSRLLDNMAEFFRPTEQDLQHGNSMNSLSSVSLPLAKIIPIVNGQIHSVCSETPSHFVQDLLTMEQVKDFAANVYEAFSTPQQLEK
B2: CREB/ATF bZIP transcription factor (Homo sapiens), Q9NS37 (parent)
chain: MRHSLTKLLAASGSNSPTRSESPEPAATCSLPSDLTRAAAGEEETAAAGSPGRKQQFGDEGELEAGRGSRGGVAVRAPSPEEMEEEAIASLPGEETEDMDFLSGLELADLLDPRQPDWHLDPGLSSPGPLSSSGGGSDSGGLWRGDDDDEAAAAEMQRFSDLLQRLLNGIGGCSSSSDSGSAEKRRRKSPGGGGGGGSGNDNNQAATKSPRKAAAAAARLNRLKKKEYVMGLESRVRGLAAENQELRAENRELGKRVQALQEESRYLRAVLANETGLARLLSRLSGVGLRLTTSLFRDSPAGDHDYALPVGKQKQDLLEEDDSAGGVCLHVDKDKVSVEFCSACARKASSSLKM
partner: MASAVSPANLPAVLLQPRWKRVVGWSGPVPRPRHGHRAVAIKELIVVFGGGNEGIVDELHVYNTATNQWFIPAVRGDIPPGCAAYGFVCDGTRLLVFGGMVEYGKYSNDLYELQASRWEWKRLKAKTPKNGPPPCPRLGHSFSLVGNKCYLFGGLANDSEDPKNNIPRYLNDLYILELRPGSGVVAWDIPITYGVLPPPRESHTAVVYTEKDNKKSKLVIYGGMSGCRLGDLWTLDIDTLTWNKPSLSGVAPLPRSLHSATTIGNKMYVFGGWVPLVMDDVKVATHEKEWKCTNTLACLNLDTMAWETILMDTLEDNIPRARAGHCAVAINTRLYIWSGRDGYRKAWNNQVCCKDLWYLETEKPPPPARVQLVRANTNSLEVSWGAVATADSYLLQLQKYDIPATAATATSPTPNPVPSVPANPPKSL
B3: Host cell factor 1 (Homo sapiens), P51610-3 (parent)
chain: B2 partner
partner: B2 chain
B4: GRB10-interacting GYF protein 1 (Homo sapiens), O75420 (parent)
chain: MAAETLNFGPEWLRALSGGGSVASPPPSPAMPKYKLADYRYGREEMLALYVKENKVPEELQDKEFAAVLQDEPLQPLALEPLTEEEQRNFSLSVNSVAVLRLMGKGAGPPLAGTSRGRGSTRSRGRGRGDSCFYQRSIEEGDGAFGRSPREIQRSQSWDDRGERRFEKSARRDGARCGFEEGGAGPRKEHARSDSENWRSLREEQEEEEEGSWRLGAGPRRDGDRWRSASPDGGPRSAGWREHGERRRKFEFDLRGDRGGCGEEEGRGGGGSSHLRRCRAPEGFEEDKDGLPEWCLDDEDEEMGTFDASGAFLPLKKGPKEPIPEEQELDFQGLEEEEEPSEGLEEEGPEAGGKELTPLPPQEEKSSSPSPLPTLGPLWGTNGDGDETAEKEPPAAEDDIRGIQLSPGVGSSAGPPGDLEDDEGLKHLQQEAEKLVASLQDSSLEEEQFTAAMQTQGLRHSAAATALPLSHGAARKWFYKDPQGEIQGPFTTQEMAEWFQAGYFSMSLLVKRGCDEGFQPLGEVIKMWGRVPFAPGPSPPPLLGNMDQERLKKQQELAAAALYQQLQHQQFLQLVSSRQLPQCALREKAALGDLTPPPPPPPQQQQQQLTAFLQQLQALKPPRGGDQNLLPTMSRSLSVPDSGRLWDVHTSASSQSGGEASLWDIPINSSTQGPILEQLQLQHKFQERREVELRAKREEEERKRREEKRRQQQQEEQKRRQEEEELFRRKHVRQQELLLKLLQQQQAVPVPPAPSSPPPLWAGLAKQGLSMKTLLELQLEGERQLHKQPPPREPARAQAPNHRVQLGGLGTAPLNQWVSEAGPLWGGPDKSGGGSSGLGLWEDTPKSGGSLVRGLGLKNSRSSPSLSDSYSHLSGRPIRKKTEEEEKLLKLLQGIPRPQDGFTQWCEQMLHTLSATGSLDVPMAVAILKEVESPYDVHDYIRSCLGDTLEAKEFAKQFLERRAKQKASQQRQQQQEAWLSSASLQTAFQANHSTKLGPGEGSKAKRRALMLHSDPSILGYSLHGSSGEIESVDDY
B5: Peroxisomal biogenesis factor 3 (Homo sapiens), P56589 (parent)
chain: B1 chain
partner: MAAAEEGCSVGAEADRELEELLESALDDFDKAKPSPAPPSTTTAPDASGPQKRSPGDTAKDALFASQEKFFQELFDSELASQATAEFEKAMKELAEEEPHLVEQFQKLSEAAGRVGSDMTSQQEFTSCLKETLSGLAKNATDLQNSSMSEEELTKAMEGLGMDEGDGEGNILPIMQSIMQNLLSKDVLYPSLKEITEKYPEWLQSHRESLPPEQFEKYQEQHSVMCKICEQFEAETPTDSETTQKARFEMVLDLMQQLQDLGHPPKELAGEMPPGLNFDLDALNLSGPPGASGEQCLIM

Variants of: B1
Conditions: with pex16_human PEX16, Q9Y5Y5
pex16_human PEX16, Q9Y5Y5, sequence (Q9Y5Y5 whole entry): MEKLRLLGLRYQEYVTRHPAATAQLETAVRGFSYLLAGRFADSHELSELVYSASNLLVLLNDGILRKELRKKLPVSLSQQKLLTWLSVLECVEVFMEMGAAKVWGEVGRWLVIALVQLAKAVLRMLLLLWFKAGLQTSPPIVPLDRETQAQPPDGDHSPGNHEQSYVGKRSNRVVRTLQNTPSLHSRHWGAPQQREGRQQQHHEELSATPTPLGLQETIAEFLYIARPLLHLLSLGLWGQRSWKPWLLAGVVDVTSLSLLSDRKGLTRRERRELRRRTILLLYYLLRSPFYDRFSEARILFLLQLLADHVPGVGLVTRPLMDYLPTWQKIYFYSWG

effect of a mutation on the interaction | Variant
decreasing interaction strength | MLRSVWNFLKRHKKKCIFLGTVLGGVYILGKYGQKKIREIQEREAAEYIAQARRQYHFESNQRTCNMTVLSMLPTLREALMQQLNSESLTALLKNRPSNKLEIWEDLKIISFTRSTVAVYSTCMLVVLLRVQLNIIGGYIYLDNAAVGKNGTTILAPPDVQQQYLSSIQHLLGDGLTELITVIKQAVQKVLGSVSLKHSLSLLDLEQKLKEIRNLVEQHKSSSWINKDGSKPLLCHYMMPDEETPLAVQACGLSPRDITTIKLLNETRDMLRSPDFSTVLNTCLNRGFSRLLDNMAEFFRPTEQDLQHGNSMNSLSSVSLPLAKIIPIVNGQIHSVCSETPSHFVQDLLTMEQVKDFAANVYEAFSTPQQLEK [E272R]

Variants of: B2
Conditions: with HCFC1, P51610-3

effect of a mutation on the interaction | Variant
decreasing interaction strength | MRHSLTKLLAASGSNSPTRSESPEPAATCSLPSDLTRAAAGEEETAAAGSPGRKQQFGDEGELEAGRGSRGGVAVRAPSPEEMEEEAIASLPGEETEDMDFLSGLELADLLDPRQPDWHLDPGLSSPGPLSSSGGGSDSGGLWRGDDDDEAAAAEMQRFSDLLQRLLNGIGGCSSSSDSGSAEKRRRKSPGGGGGGGSGNDNNQAATKSPRKAAAAAARLNRLKKKEYVMGLESRVRGLAAENQELRAENRELGKRVQALQEESRYLRAVLANETGLARLLSRLSGVGLRLTTSLFRDSPAGDHDAALPVGKQKQDLLEEDDSAGGVCLHVDKDKVSVEFCSACARKASSSLKM [Y306A]

Variants of: B3
Conditions: with zhang_human CREBZF

effect of a mutation on the interaction | Variant
decreasing interaction strength | MASAVSPANLPAVLLQPRWKRVVGWSGPVPRPRHGHRAVAIKELIVVFGGGNEGIVDELHVYNTATNQWFIPAVRGDIPPGCAAYGFVCDGTRLLVFGGMVEYGKYSNDLYELQASRWEWKRLKAKTPKNGPPPCPRLGHSFSLVGNKCYLFGGLANDSEDPKNNIPRYLNDLYILELRPGSGVVAWDIPITYGVLPPPRESHTAVVYTEKDNKKSKLVIYGGMSGCRLGDLWTLDIDTLTWNKPSLSGVAPLPRSFHSATTIGNKMYVFGGWVPLVMDDVKVATHEKEWKCTNTLACLNLDTMAWETILMDTLEDNIPRARAGHCAVAINTRLYIWSGRDGYRKAWNNQVCCKDLWYLETEKPPPPARVQLVRANTNSLEVSWGAVATADSYLLQLQKYDIPATAATATSPTPNPVPSVPANPPKSL [L257F]
decreasing interaction strength | MASAVSPANLPAVLLQPRWKRVVGWSGPVPRPRHGHRAVAIKELIVVFGGGNEGIVDELHVYNTATNQWFIPAVRGDIPPGCAAYGFVCDGTRLLVFGGMVEYGKYSNDLYELQASRWEWKRLKAKTPKNGPPPCPRFGHSFSLVGNKCYLFGGLANDSEDPKNNIPRYLNDLYILELRPGSGVVAWDIPITYGVLPPPRESHTAVVYTEKDNKKSKLVIYGGMSGCRLGDLWTLDIDTLTWNKPSLSGVAPLPRSLHSATTIGNKMYVFGGWVPLVMDDVKVATHEKEWKCTNTLACLNLDTMAWETILMDTLEDNIPRARAGHCAVAINTRLYIWSGRDGYRKAWNNQVCCKDLWYLETEKPPPPARVQLVRANTNSLEVSWGAVATADSYLLQLQKYDIPATAATATSPTPNPVPSVPANPPKSL [L138F]
with no effect | MASAVSPANLPAVLLQPRWKRVVGWSGPVPRPRHGHRAVAIKELIVVFGGGNEGIVDELHVYNTATNQWFIPAVRGDIPPGCAAYGFVCDGTRLLVFGGMVEYGKYSNDLYELQASRWEWKRLKAKTPKNGPPPCPRLGHSFSLVGNKCYLFGGLANDSEDPKNNIPRYLNDLYILELRPGSGVVAWDIPITYGVLPPPRESHTAVVYTEKDNKKSKLVIYGGMNGCRLGDLWTLDIDTLTWNKPSLSGVAPLPRSLHSATTIGNKMYVFGGWVPLVMDDVKVATHEKEWKCTNTLACLNLDTMAWETILMDTLEDNIPRARAGHCAVAINTRLYIWSGRDGYRKAWNNQVCCKDLWYLETEKPPPPARVQLVRANTNSLEVSWGAVATADSYLLQLQKYDIPATAATATSPTPNPVPSVPANPPKSL [S225N]

Variants of: B4
Conditions: with SNRPB

effect of a mutation on the interaction | Variant
with no effect | L508F
decreasing interaction strength | W498E

Variants of: B5
Conditions: with pex19_human PEX19, P40855

effect of a mutation on the interaction | Variant
with no effect | MLRSVWNFLKRHKKKCIFLGTVLGGVYILGKYGQKKIREIQEREAAEYIAQARRQYHFESNQRTCNMTVLSMLPTLREALMQQLNSESLQALLKNRPSNKLEIWEDLKIISFTRSTVAVYSTCMLVVLLRVQLNIIGGYIYLDNAAVGKNGTTILAPPDVQQQYLSSIQHLLGDGLTELITVIKQAVQKVLGSVSLKHSLSLLDLEQKLKEIRNLVEQHKSSSWINKDGSKPLLCHYMMPDEETPLAVQACGLSPRDITTIKLLNETRDMLESPDFSTVLNTCLNRGFSRLLDNMAEFFRPTEQDLQHGNSMNSLSSVSLPLAKIIPIVNGQIHSVCSETPSHFVQDLLTMEQVKDFAANVYEAFSTPQQLEK [T90Q]
with no effect | MLRSVWNFLKRHKKKCIFLGTVLGGVYILGKYGQKKIREIQEREAAEYIAQARSQYHFESNQRTCNMTVLSMLPTLREALMQQLNSESLTALLKNRPSNKLEIWEDLKIISFTRSTVAVYSTCMLVVLLRVQLNIIGGYIYLDNAAVGKNGTTILAPPDVQQQYLSSIQHLLGDGLTELITVIKQAVQKVLGSVSLKHSLSLLDLEQKLKEIRNLVEQHKSSSWINKDGSKPLLCHYMMPDEETPLAVQACGLSPRDITTIKLLNETRDMLESPDFSTVLNTCLNRGFSRLLDNMAEFFRPTEQDLQHGNSMNSLSSVSLPLAKIIPIVNGQIHSVCSETPSHFVQDLLTMEQVKDFAANVYEAFSTPQQLEK [R54S]
with no effect | MLRSVWNFLKRHKKKCIFLGTVLGGVYILGKYGQKKIREIQEREAAEYIAQARRQYHFESNQRTCNMTVLSMLPTLREALMQQLNSESLTALLKNRPSNKLEIWEDLKIISFTRSTVAVYSTCMLVVLLRVQLNIIGGYIYLDNAAVGKNGTTILAPPDVQQQYLSSIQHLLGDGLTELITVIKQAVQKVLGSVSLKHSLSLLDLEQKLKEIRNLVEQHKSSSWINKDGSKPLLCHYMMPDEETPLAVQACGLSPRDITTIKLLNETRDMLRSPDFSTVLNTCLNRGFSRLLDNMAEFFRPTEQDLQHGNSMNSLSSVSLPLAKIIPIVNGQIHSVCSETPSHFVQDLLTMEQVKDFAANVYEAFSTPQQLEK [E272R]
